Four proteins from PMC3099344 (Structure (London, England : 1993), 2011) can be followed below.

Data set [1] concerns the molecule itself. The experiment in a line: AUC.
Data set [2] deals with the molecule itself. The experiment in a line: crystal structure.

B1: D. melanogaster Boca conserved core (dmBocaCC) (domain or fragment, Drosophila melanogaster)
chain: GSHMKKDIRDYSEADLERLLDQWEEDEEPLEDDELPEHLRPQPKLDLSNLDSKSPEDLLKVSKKGRTLMTFVSVTGNPTREESDTITKLWQTSLWNNHIQAERYMVDDNRAIFLFKDGTQAWDAKDFLIEQERCKGVTIENKEYPG
For the protein B1, binding in data set [1] was put at a Kd of 155 ± 4.6 µM.

B2: M. musculus Mesd structured domain (mmMesdSD) (domain or fragment, Mus musculus)
chain: GSHMTKKGKTLMMFVTVSGNPTEKETEEITSLWQGSLFNANYDVQRFIVGSDRAIFMLRDGSYAWEIKDFLVSQDRCAEVTLEGQMYPG
For the protein B2, in data set [1], the Kd (usually the free concentration of one partner at which half of the binding sites on the other are occupied at equilibrium, for simple one-to-one binding) was found to be 276 ± 13.8 µM.

B3: D. melanogaster Boca structured domain (dmBocaSD) (domain or fragment, Drosophila melanogaster)
chain: GSQKHMSKKGRTLMTFVSVTGNPTREESDTITKLWQTSLWNNHIQAERYMVDDNRAIFLFKDGTQAWDAKDFLIEQERCKGVTIENKEYPG
B3: in data set [1], the Kd is 77 ± 3.1 µM.

B4: Selenomethionyl D. melanogaster Boca structured domain (SeMet dmBocaSD) (domain or fragment, Drosophila melanogaster)
chain: B3 chain
modifications: selenomethionyl (SeMet) protein
Consider B4, for which the binding result in data set [2] is listed as “binds”.
